The target of assay [1] is T1, C-luc Apaf-1 (full length Apaf-1 fused through its N-terminus to the C-terminal fragment, amino acids 395-550, of P. pyralis luciferase, with C-terminal His-tag), O14727.
T1 chain: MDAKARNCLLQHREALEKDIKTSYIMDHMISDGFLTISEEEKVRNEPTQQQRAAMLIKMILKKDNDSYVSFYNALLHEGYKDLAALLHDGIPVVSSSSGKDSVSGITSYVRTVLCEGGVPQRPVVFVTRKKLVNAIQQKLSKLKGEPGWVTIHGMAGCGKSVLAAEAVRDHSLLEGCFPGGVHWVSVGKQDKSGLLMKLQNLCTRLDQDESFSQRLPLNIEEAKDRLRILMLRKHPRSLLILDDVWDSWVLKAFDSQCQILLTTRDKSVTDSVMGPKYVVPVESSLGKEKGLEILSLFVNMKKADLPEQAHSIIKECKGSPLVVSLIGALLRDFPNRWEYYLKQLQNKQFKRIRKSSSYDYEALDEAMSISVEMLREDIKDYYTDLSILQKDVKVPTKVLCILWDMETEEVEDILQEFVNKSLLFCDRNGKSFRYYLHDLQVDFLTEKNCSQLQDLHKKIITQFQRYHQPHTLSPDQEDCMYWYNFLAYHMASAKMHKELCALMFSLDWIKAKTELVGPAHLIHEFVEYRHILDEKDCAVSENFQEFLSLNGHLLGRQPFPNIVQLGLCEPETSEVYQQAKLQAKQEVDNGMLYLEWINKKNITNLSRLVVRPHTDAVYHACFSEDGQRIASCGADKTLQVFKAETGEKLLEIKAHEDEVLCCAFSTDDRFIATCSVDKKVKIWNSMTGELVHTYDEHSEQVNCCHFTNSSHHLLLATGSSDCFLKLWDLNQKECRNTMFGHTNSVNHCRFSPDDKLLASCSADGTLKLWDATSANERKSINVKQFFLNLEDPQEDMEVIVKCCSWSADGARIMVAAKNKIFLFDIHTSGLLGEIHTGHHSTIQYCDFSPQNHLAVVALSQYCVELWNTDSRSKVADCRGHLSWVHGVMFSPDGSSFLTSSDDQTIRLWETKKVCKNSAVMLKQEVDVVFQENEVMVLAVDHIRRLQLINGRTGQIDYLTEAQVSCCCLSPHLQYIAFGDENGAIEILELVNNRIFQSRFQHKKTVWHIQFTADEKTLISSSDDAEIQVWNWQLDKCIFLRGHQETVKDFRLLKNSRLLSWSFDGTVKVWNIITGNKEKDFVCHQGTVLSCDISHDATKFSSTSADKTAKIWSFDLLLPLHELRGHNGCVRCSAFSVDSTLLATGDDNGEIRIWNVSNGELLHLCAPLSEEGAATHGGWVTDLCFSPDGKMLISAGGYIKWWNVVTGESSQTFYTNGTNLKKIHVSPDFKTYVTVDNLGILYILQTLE
Put plainly: split reporter (BiFC, NanoBiT); cell-free split luciferase: extracts of N-luc Apaf-1 and C-luc Apaf-1 expressing cells mixed, cytochrome c (1.6 μM) and dATP (1.0 mM) added, room temperature; against the mixture without cytochrome c and dATP. As to conditions: remark: other sources report otherwise.

For assay [2], the target named is T1, C-luc Apaf-1 (full length Apaf-1 fused …). Put plainly: split reporter (BiFC, NanoBiT); cell-based split luciferase: HEK293 co-transfected with N-luc Apaf-1 and C-luc Apaf-1 (N/P 12), apoptosis induced with 0.5 μM doxorubicin, lysates (CCLR) prepared 12, 24, 28 and 36 h after induction; luciferase activity against uninduced cells. As to conditions: remark: other sources report otherwise.

B1: N-luc Apaf-1 (full length Apaf-1 fused through its N-terminus to the N-terminal fragment, amino acids 1-416, of P. pyralis luciferase), O14727 1-1248 (natural protein)
chain: MDAKARNCLLQHREALEKDIKTSYIMDHMISDGFLTISEEEKVRNEPTQQQRAAMLIKMILKKDNDSYVSFYNALLHEGYKDLAALLHDGIPVVSSSSGKDSVSGITSYVRTVLCEGGVPQRPVVFVTRKKLVNAIQQKLSKLKGEPGWVTIHGMAGCGKSVLAAEAVRDHSLLEGCFPGGVHWVSVGKQDKSGLLMKLQNLCTRLDQDESFSQRLPLNIEEAKDRLRILMLRKHPRSLLILDDVWDSWVLKAFDSQCQILLTTRDKSVTDSVMGPKYVVPVESSLGKEKGLEILSLFVNMKKADLPEQAHSIIKECKGSPLVVSLIGALLRDFPNRWEYYLKQLQNKQFKRIRKSSSYDYEALDEAMSISVEMLREDIKDYYTDLSILQKDVKVPTKVLCILWDMETEEVEDILQEFVNKSLLFCDRNGKSFRYYLHDLQVDFLTEKNCSQLQDLHKKIITQFQRYHQPHTLSPDQEDCMYWYNFLAYHMASAKMHKELCALMFSLDWIKAKTELVGPAHLIHEFVEYRHILDEKDCAVSENFQEFLSLNGHLLGRQPFPNIVQLGLCEPETSEVYQQAKLQAKQEVDNGMLYLEWINKKNITNLSRLVVRPHTDAVYHACFSEDGQRIASCGADKTLQVFKAETGEKLLEIKAHEDEVLCCAFSTDDRFIATCSVDKKVKIWNSMTGELVHTYDEHSEQVNCCHFTNSSHHLLLATGSSDCFLKLWDLNQKECRNTMFGHTNSVNHCRFSPDDKLLASCSADGTLKLWDATSANERKSINVKQFFLNLEDPQEDMEVIVKCCSWSADGARIMVAAKNKIFLFDIHTSGLLGEIHTGHHSTIQYCDFSPQNHLAVVALSQYCVELWNTDSRSKVADCRGHLSWVHGVMFSPDGSSFLTSSDDQTIRLWETKKVCKNSAVMLKQEVDVVFQENEVMVLAVDHIRRLQLINGRTGQIDYLTEAQVSCCCLSPHLQYIAFGDENGAIEILELVNNRIFQSRFQHKKTVWHIQFTADEKTLISSSDDAEIQVWNWQLDKCIFLRGHQETVKDFRLLKNSRLLSWSFDGTVKVWNIITGNKEKDFVCHQGTVLSCDISHDATKFSSTSADKTAKIWSFDLLLPLHELRGHNGCVRCSAFSVDSTLLATGDDNGEIRIWNVSNGELLHLCAPLSEEGAATHGGWVTDLCFSPDGKMLISAGGYIKWWNVVTGESSQTFYTNGTNLKKIHVSPDFKTYVTVDNLGILYILQTLE
As to B1, the fold increase in reconstituted luciferase activity with dATP/cytochrome c against the mixture without them in assay [1] worked out at 5 fold. In addition, in assay [2], the fold change in luciferase activity against uninduced cells, 12 h after apoptosis induction amounted to 10 fold; the fold change in luciferase activity against uninduced cells, 24 h after apoptosis induction stood at 130 fold; the fold change in luciferase activity against uninduced cells, 28 h after apoptosis induction amounted to 280 fold; the fold change in luciferase activity against uninduced cells, 36 h after apoptosis induction stood at 40 fold.

(Values after PMC5856089.)
